From paper PMC10092763

Target: PAX2 (UniProt Q02962)
Test: co-IP, FLAG-PAX2 with HA-AFF4
Details: reference: wild type; sites S388

binding against the reference: weaker
Substance: AFF4 (from UniProt Q9UHB7) S388A
